Test results published in ChEMBL document CHEMBL1212722, “Designer enzymes for glycosphingolipid synthesis by directed evolution” (Nat Chem Biol, 2009).
Where a chain is given by its changes, count along the chain named. Names and notes keep the numbering of the source.

How the values were obtained:
[1] = substrate: CCCCCCCCCCCCC/C=C/[C@@H](O)[C@@H](N)CO; assay: (§1) Ratio of Kcat to Km of Activity of Rhodococcus sp. M777 Endoglycoceramidase 2 P394S mutant
[2] = substrate: CC(=O)N[C@H]1[C@H](O[C@@H]2[C@H](O[C@]3(C(=O)O)C[C@H](O)[C@@H](NC(C)=O)[C@H]([C@@H](O)[C@@H](O)CO)O3)[C@@H](O)[C@H](O[C@H]3[C@H](O)[C@@H](O)[C@@H](F)O[C@@H]3CO)O[C@@H]2CO)O[C@H](CO)[C@H](O)[C@@H]1O[C@@H]1O[C@H](CO)[C@H](O)[C@H](O)[C@H]1O; assay: as §1
[3] = substrate: CCCCCCCCCCCCC/C=C/[C@@H](O)[C@@H](N)CO; assay: (§2) Activity of Rhodococcus sp. M777 Endoglycoceramidase 2 P394S mutant
[4] = substrate: CC(=O)N[C@H]1[C@H](O[C@@H]2[C@H](O[C@]3(C(=O)O)C[C@H](O)[C@@H](NC(C)=O)[C@H]([C@@H](O)[C@@H](O)CO)O3)[C@@H](O)[C@H](O[C@H]3[C@H](O)[C@@H](O)[C@@H](F)O[C@@H]3CO)O[C@@H]2CO)O[C@H](CO)[C@H](O)[C@@H]1O[C@@H]1O[C@H](CO)[C@H](O)[C@H](O)[C@H]1O; assay: as §2
[5] = substrate: CCCCCCCCCCCCC/C=C/[C@@H](O)[C@@H](N)CO; assay: (§3) Ratio of Kcat to Km of Activity of Rhodococcus sp. M777 Endoglycoceramidase 2 A153T D314Y R177H mutant
[6] = substrate: CC(=O)N[C@H]1[C@H](O[C@@H]2[C@H](O[C@]3(C(=O)O)C[C@H](O)[C@@H](NC(C)=O)[C@H]([C@@H](O)[C@@H](O)CO)O3)[C@@H](O)[C@H](O[C@H]3[C@H](O)[C@@H](O)[C@@H](F)O[C@@H]3CO)O[C@@H]2CO)O[C@H](CO)[C@H](O)[C@@H]1O[C@@H]1O[C@H](CO)[C@H](O)[C@H](O)[C@H]1O; assay: as §3
[7] = substrate: CCCCCCCCCCCCC/C=C/[C@@H](O)[C@@H](N)CO; assay: (§4) Activity of Rhodococcus sp. M777 Endoglycoceramidase 2 A153T D314Y R177H mutant
[8] = substrate: CC(=O)N[C@H]1[C@H](O[C@@H]2[C@H](O[C@]3(C(=O)O)C[C@H](O)[C@@H](NC(C)=O)[C@H]([C@@H](O)[C@@H](O)CO)O3)[C@@H](O)[C@H](O[C@H]3[C@H](O)[C@@H](O)[C@@H](F)O[C@@H]3CO)O[C@@H]2CO)O[C@H](CO)[C@H](O)[C@@H]1O[C@@H]1O[C@H](CO)[C@H](O)[C@H](O)[C@H]1O; assay: as §4
[9] = substrate: CCCCCCCCCCCCC/C=C/[C@@H](O)[C@@H](N)CO; assay: (§5) Activity of Rhodococcus sp. M777 Endoglycoceramidase 2 T257I T416A mutant
[10] = substrate: CC(=O)N[C@H]1[C@H](O[C@@H]2[C@H](O[C@]3(C(=O)O)C[C@H](O)[C@@H](NC(C)=O)[C@H]([C@@H](O)[C@@H](O)CO)O3)[C@@H](O)[C@H](O[C@H]3[C@H](O)[C@@H](O)[C@@H](F)O[C@@H]3CO)O[C@@H]2CO)O[C@H](CO)[C@H](O)[C@@H]1O[C@@H]1O[C@H](CO)[C@H](O)[C@H](O)[C@H]1O; assay: as §5
[11] = substrate: CCCCCCCCCCCCC/C=C/[C@@H](O)[C@@H](N)CO; assay: (§6) Ratio of Kcat to Km of Activity of Rhodococcus sp. M777 Endoglycoceramidase 2 T257I T416A mutant
[12] = substrate: CC(=O)N[C@H]1[C@H](O[C@@H]2[C@H](O[C@]3(C(=O)O)C[C@H](O)[C@@H](NC(C)=O)[C@H]([C@@H](O)[C@@H](O)CO)O3)[C@@H](O)[C@H](O[C@H]3[C@H](O)[C@@H](O)[C@@H](F)O[C@@H]3CO)O[C@@H]2CO)O[C@H](CO)[C@H](O)[C@@H]1O[C@@H]1O[C@H](CO)[C@H](O)[C@H](O)[C@H]1O; assay: as §6
[13] = substrate: CCCCCCCCCCCCC/C=C/[C@@H](O)[C@@H](N)CO; assay: (§7) Ratio of Kcat to Km of Activity of Rhodococcus sp. M777 Endoglycoceramidase 2 N334S mutant
[14] = substrate: CC(=O)N[C@H]1[C@H](O[C@@H]2[C@H](O[C@]3(C(=O)O)C[C@H](O)[C@@H](NC(C)=O)[C@H]([C@@H](O)[C@@H](O)CO)O3)[C@@H](O)[C@H](O[C@H]3[C@H](O)[C@@H](O)[C@@H](F)O[C@@H]3CO)O[C@@H]2CO)O[C@H](CO)[C@H](O)[C@@H]1O[C@@H]1O[C@H](CO)[C@H](O)[C@H](O)[C@H]1O; assay: as §7
[15] = substrate: CCCCCCCCCCCCC/C=C/[C@@H](O)[C@@H](N)CO; assay: (§8) Activity of Rhodococcus sp. M777 Endoglycoceramidase 2 N334S mutant
[16] = substrate: CC(=O)N[C@H]1[C@H](O[C@@H]2[C@H](O[C@]3(C(=O)O)C[C@H](O)[C@@H](NC(C)=O)[C@H]([C@@H](O)[C@@H](O)CO)O3)[C@@H](O)[C@H](O[C@H]3[C@H](O)[C@@H](O)[C@@H](F)O[C@@H]3CO)O[C@@H]2CO)O[C@H](CO)[C@H](O)[C@@H]1O[C@@H]1O[C@H](CO)[C@H](O)[C@H](O)[C@H]1O; assay: as §8
[17] = substrate: CCCCCCCCCCCCC/C=C/[C@@H](O)[C@@H](N)CO; assay: (§9) Activity of Rhodococcus sp. M777 Endoglycoceramidase 2 A153T D314Y mutant
[18] = substrate: CC(=O)N[C@H]1[C@H](O[C@@H]2[C@H](O[C@]3(C(=O)O)C[C@H](O)[C@@H](NC(C)=O)[C@H]([C@@H](O)[C@@H](O)CO)O3)[C@@H](O)[C@H](O[C@H]3[C@H](O)[C@@H](O)[C@@H](F)O[C@@H]3CO)O[C@@H]2CO)O[C@H](CO)[C@H](O)[C@@H]1O[C@@H]1O[C@H](CO)[C@H](O)[C@H](O)[C@H]1O; assay: as §9
[19] = substrate: CCCCCCCCCCCCC/C=C/[C@@H](O)[C@@H](N)CO; assay: (§10) Ratio of Kcat to Km of Activity of Rhodococcus sp. M777 Endoglycoceramidase 2 A153T D314Y mutant
[20] = substrate: CC(=O)N[C@H]1[C@H](O[C@@H]2[C@H](O[C@]3(C(=O)O)C[C@H](O)[C@@H](NC(C)=O)[C@H]([C@@H](O)[C@@H](O)CO)O3)[C@@H](O)[C@H](O[C@H]3[C@H](O)[C@@H](O)[C@@H](F)O[C@@H]3CO)O[C@@H]2CO)O[C@H](CO)[C@H](O)[C@@H]1O[C@@H]1O[C@H](CO)[C@H](O)[C@H](O)[C@H]1O; assay: as §10

B1: Endoglycoceramidase II (Rhodococcus sp), A0ACD6B832 P394S (protein)
chain: MRRTRLVSLIVTGSLVFGGGVAAAQSSLAASGSGSGSGTALTPSYLKDDDGRSLILRGFNTASSAKSAPDGMPQFTEADLAREYADMGTNFVRFLISWRSVEPAPGVYDQQYLDRVEDRVGWYAERGYKVMLDMHQDVYSGAITPEGNSGNGAGAIGNGAPAWATYMDGLPVEPQPRWELYYIQPGVMRAFDNFWNTTGKHPELVEHYAKAWRAVADRFADNDAVVAYDLMNEPFGGSLQGPAFEAGPLAAMYQRTTDAIRQVDQDTWVCVAPQAIGVNQGLPSGLTKIDDPRAGQQRIAYCPHLYPLPLDIGDGHEGLARTLTDVTIDAWRANTAHTARVLGDVPIILGEFGLDTTLPGARDYIERVYGTAREMGAGVSYWSSDPGPWGPYLSDGTQTLLVDTLNKPYPRAVAGTPTEWSSTSDRLQLTIEPDAAITAPTEIYLPEAGFPGDVHVEGADVVGWDRQSRLLTVRTPADSGNVTVTVTPAA
B1 was tested, and the kcat/Km [1] was 660 M⁻¹ s⁻¹, the kcat/Km [2] was 319 M⁻¹ s⁻¹ and the Km [3] was 500 µM. The kcat [3] was 0.33 s⁻¹, the Km [4] was 690 µM and the kcat [4] was 0.22 s⁻¹.

B2: Endoglycoceramidase II (Rhodococcus sp), A0ACD6B832 A153T,D314Y,R177H (protein)
chain: B1 chain with A153T, R177H, D314Y, S394P
For B2, the kcat/Km [5] was 490 M⁻¹ s⁻¹, the kcat/Km [6] was 350 M⁻¹ s⁻¹ and the Km [7] was 490 µM. The kcat [7] was 0.24 s⁻¹, the Km [8] was 800 µM and the kcat [8] was 0.28 s⁻¹.

B3: Endoglycoceramidase II (Rhodococcus sp), A0ACD6B832 T257I,T416A (protein)
chain: B1 chain with T257I, S394P, T416A
B3 gave a Km [9] of 870 µM, a kcat [9] of 0.18 s⁻¹ and a Km [10] of 370 µM. For the same protein, the kcat [10] was 0.11 s⁻¹, the kcat/Km [11] was 206 M⁻¹ s⁻¹ and the kcat/Km [12] was 297 M⁻¹ s⁻¹.

B4: Endoglycoceramidase II (Rhodococcus sp), A0ACD6B832 N334S (protein)
chain: B1 chain with N334S, S394P
B4 was tested, and the kcat/Km [13] was 279 M⁻¹ s⁻¹, the kcat/Km [14] was 186 M⁻¹ s⁻¹ and the Km [15] was 680 µM. For the same protein, the kcat [15] was 0.19 s⁻¹, the Km [16] was 700 µM and the kcat [16] was 0.13 s⁻¹.

B5: Endoglycoceramidase II (Rhodococcus sp), A0ACD6B832 A153T,D314Y (protein)
chain: B1 chain with A153T, D314Y, S394P
For B5, the Km [17] was 1600 µM, the kcat [17] was 0.64 s⁻¹ and the Km [18] was 270 µM. The kcat [18] was 0.3 s⁻¹, the kcat/Km [19] was 407 M⁻¹ s⁻¹ and the kcat/Km [20] was 1110 M⁻¹ s⁻¹.
